From patent publication US20160058886A1 come the findings set out here.

The target of assay [1] is nucleolin at the surface of MDA-MB-231 and MDA-MB-435S breast cancer cells (UniProt P19338). The assay can be described thus: flow cytometry, rhodamine geometric mean fluorescence, MDA-MB-435S cells. Background: In flow cytometry, cells or beads pass a laser one at a time.
For assay [2] the target is unchanged. The assay can be described thus: flow cytometry, rhodamine geometric mean fluorescence, MDA-MB-231 cells.

Sequence of UniProt P19338 (P19338 2-710 limits assumed): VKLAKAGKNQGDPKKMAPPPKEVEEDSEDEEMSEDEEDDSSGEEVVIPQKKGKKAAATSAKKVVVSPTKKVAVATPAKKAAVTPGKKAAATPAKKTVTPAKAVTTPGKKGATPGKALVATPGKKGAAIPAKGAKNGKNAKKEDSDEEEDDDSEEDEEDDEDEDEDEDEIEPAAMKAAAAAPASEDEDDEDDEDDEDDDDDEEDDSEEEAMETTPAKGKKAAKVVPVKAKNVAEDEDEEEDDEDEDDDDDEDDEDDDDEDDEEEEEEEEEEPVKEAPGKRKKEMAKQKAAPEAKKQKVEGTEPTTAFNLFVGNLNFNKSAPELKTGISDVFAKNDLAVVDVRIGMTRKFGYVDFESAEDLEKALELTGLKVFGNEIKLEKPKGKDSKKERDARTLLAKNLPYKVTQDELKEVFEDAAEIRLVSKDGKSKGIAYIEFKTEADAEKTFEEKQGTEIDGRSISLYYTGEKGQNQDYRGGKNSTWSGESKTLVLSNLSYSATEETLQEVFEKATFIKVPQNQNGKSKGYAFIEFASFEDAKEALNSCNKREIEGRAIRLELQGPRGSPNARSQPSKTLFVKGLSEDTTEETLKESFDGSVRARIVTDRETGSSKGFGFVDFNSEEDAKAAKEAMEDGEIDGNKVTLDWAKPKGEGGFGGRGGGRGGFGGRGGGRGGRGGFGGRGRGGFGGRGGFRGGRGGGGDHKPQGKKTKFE

In assay [1], “F3 peptide-targeted liposomes (F3 peptide, SEQ ID NO:1, coupled through DSPE-PEG2k to pH-sensitive liposomes)” had a higher cellular association of the CD44+/ALDHhi population against the CD44-/ALDH-/low population (MDA-MB-435S) of 61%. Further, the higher cellular association of the CD44+/ALDHhi population against the CD44-/ALDH-/low population (MDA-MB-231) in assay [2] came to 64%.
